Results taken from patent US6471960B1, “Methods for the prevention or treatment of alzheimer's disease” (Rutgers, the State University, priority 1994, dated 2002).

Columns and labels:
tPA [1] = target: T1, tPA (Homo sapiens, UniProt P00750); test: Binding of active site 125I-labeled tPA to amyloid fibrils or fibrin; settings: for effect on tPA binding to amyloid fibrils: ε-aminocaproic acid at 0.1 M (100 mM); for t-PA binding relative to wt β1-28 and fibrin controls: fibrils of Charged→Gln β(1-28) variants
Method: In this study, D-Tyr-Pro-Arg-chloromethyl ketone (Bachem Bioscience) was radioiodinated by the chloramine-T method and subsequently used to irreversibly bind to the active site of tPA. (Keyt, et al, Anal. Biochem. 206:73-83 (1992)). 1 mCi of I^125 was mixed with YPRck in 1 M Tris-HCL, 0.01% Tween 20 at pH 7.5. To initiate iodination 10 μl of 1 mg/ml Chloramine-T was added. After 1 minute, 20 μl of 1 mg/ml sodium metabisulfite was added to reduce the Chloramine-T and iodide. 15 μl of 1 mg/ml tPA was then added, and the mixture was incubated at room temperature for 1 hour to allow the YPRck to bind to the tPA. Radiolabeled tPA was purified from free iodine and unreacted YPRck using a PD-10 column preequilibrated with PBS and 0.003% Tween 20. The labeled protein was stored at −20° C.
(§1) Synthetic Amyloid Fibril Formation—β1-28 (Chiron Mimotopes Peptide Systems) and β1-40 (Bachem Bioscience) peptides were dissolved in water. Aggregation solution conditions were 1×PBS, 1 mg/ml β-peptide and the pH was adjusted to the theoretical pI of the peptides (5.6 for β1-28 and 4.9 for β1-40). Solutions were kept at room temperature.
Binding of Active Site-labeled tPA to Amyloid Fibrils or to Fibrin—tPA binding was determined by a modification of the method of Higgins and Vehar, Biochem. 26:7786-7791 (1987)).
To confirm that the labeled tPA's protein binding surface was not altered by the radioiodination, it was bound to fibrin by substituting fibrinogen for the fibrils. Fibrin clot formation was initiated by adding 0.4 units/ml (final human thrombin. The remainder of the assay proceeded as above.
Ihibition of kringle-dependent labeled tPA Binding to Amyloid Fibrils and Fibrin Using ε-aminocaproic acid to the binding solutions were set up on the same manner as previously noted except that ε-aminocaproic acid at 0.1 M was included in the conditions.
Previous studies of the interaction of human tissue plasminogen activator with the amyloid β peptide employed a functional plasminogen activation assay (Kingston, I. B. et al., Nature Medicine 1:138-142 (1995); Castro, M. J. M., et al., Analyt. Biochem. 226:225-231 (1995)). However, to understand this interaction more fully, a sensitive and quantitative assay for measuring direct amyloid β peptide binding by t-PA and other fibrin(ogen)-binding proteins (e. g., plasmin) was employed in the present invention. For this purposed a specific probe molecule, D-Tyr-Pro-Arg chloromethyl ketone (YPACK), was radioiodinated with ^125I then reacted with t-PA, plasmin, and thrombin to effect covalent active site modification of their respective protease domains (Keyt, B. A. et al., Analyt. Biochem. 206:73-83 (1992)). Binding of ^125I-YPACK-modified t-PA to fibrin and amyloid β peptide fibrils was carried out by a modification of the method of Higgins, D. L. et al. (Fibrinolysis 6:161-166 (1992)). Incubations of t-PA (0.5 nM) with fibrin or fibrils (100 μg/ml) were in 1X phosphate buffered saline, 0.01% Tween-80, 0.5% bovine serum albumin, pH 7.4, for 60 min. at 37° C. In some instances, ε-amino caproic add (ε-ACA) was also present at a concentration of 100 mM.

[2] = Fibril formation (electron microscopy, light scattering); type: physicochemical; settings: pH adjusted to theoretical pI
Method: Fibril formation was accomplished by taking the peptides up in water. 10×calcium and magnesium free phosphate buffered saline (“PBS”) was added to give a 1×PBS solution (2.7 mM KCl, 1.2 mM KH2PO4, 138 mM NaCl, 8.1 mM Na2HPO4). Fibril formation was obtained by adjusting the pH to the theoretical pI of the β-amyloid peptides. The theoretical pI of β-amyloid peptide 1-42 was 4.9; the theoretical pI of β-amyloid peptide 1-28 was 5.6; the theoretical pI of β-amyloid peptide 1-28 (Dutch) was 6.2. The final concentration of peptide was 1 mg/ml. […] Fibrils were observed immediately or within no more than two days at room temperature. Small aliquots of suspended aggregated peptides were absorbed onto carbon-coated copper grids and stained with 2% (w/v) uranyl acetate. Samples were examined in a JEOL 1200EX electron microscope.
as §1, with “temperature. Fibril formation was confirmed by light scattering and transmission electron microscopy.” for “temperature.”
It had been possible that some of the charged→glutamine peptide variants might not form fibrils. […]

[3] = target: tissue plasminogen activator (Homo sapiens, UniProt P00750); test: Plasminogen activation stimulation assay (H-D-valyl-L-leucyl-L-lysine-p-nitroanilide), Example 3; type: biochemical; settings: stimulators at 56 μg/ml
Method: To further investigate this relationship, the ability of amyloid β peptide fibrils to stimulate tissue plasminogen activator was studied. For this purpose, plasminogen activation assays were carried out as described by Bennett, W. F. et al., J. Biol. Chem. 266:5191-5201 (1991)). Plasmin generation was monitored by measuring the absorbance change at 405 nm produced by hydrolysis of the substrate, H-D-valyl-L-leucyl-L-lysine-p-nitroanilide. Stimulators tested were present in the assay at a concentration of 56 μg/ml. The apparent first-order rate constants of plasminogen activation t-PA were measured for various stimulators. Rate constants were determined as described by Castro, M. J. M., et al., Analyt. Biochem. 226:225-231 (1995)) using fresh or aged amyloid β peptide fibrils or control proteins.
The twelve β1-28 peptide analogs were used for plasminogen activation and direct binding assays with the fibrinogen-binding proteins t-PA, plasmin, and thrombin, specifically labeled at their respective protease domain active sites as described above. For five of the peptide variants R5Q, […], D23Q, and K28Q, t-PA binding was reduced relative to its binding to both wt β1-28 and fibrin controls, implying that the t-PA binding “footprint” on the fibrils was rather large. […]

tPA [4] = target: T1, tPA; test: Plasminogen activation by t-PA, initial velocities under steady state conditions (S-2251, Lineweaver-Burk); type: biochemical; set-up: purchased Genentech, Inc. Activase; settings: unaggregated peptides

T1 sequence (P00750 36-562): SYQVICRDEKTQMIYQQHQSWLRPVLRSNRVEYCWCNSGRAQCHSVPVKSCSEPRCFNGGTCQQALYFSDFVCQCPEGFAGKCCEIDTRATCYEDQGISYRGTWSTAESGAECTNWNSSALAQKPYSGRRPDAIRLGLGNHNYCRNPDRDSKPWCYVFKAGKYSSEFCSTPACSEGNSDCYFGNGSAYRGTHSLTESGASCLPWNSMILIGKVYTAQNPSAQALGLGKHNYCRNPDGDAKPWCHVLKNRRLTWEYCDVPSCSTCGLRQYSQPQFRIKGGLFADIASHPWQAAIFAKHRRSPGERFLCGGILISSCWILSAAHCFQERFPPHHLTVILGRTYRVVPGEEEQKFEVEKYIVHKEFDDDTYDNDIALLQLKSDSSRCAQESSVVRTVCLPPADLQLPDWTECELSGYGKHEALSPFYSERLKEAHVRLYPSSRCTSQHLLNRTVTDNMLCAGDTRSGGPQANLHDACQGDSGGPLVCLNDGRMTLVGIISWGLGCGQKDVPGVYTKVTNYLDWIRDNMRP
Sequence of tissue plasminogen activator (P00750 23-562 limits assumed): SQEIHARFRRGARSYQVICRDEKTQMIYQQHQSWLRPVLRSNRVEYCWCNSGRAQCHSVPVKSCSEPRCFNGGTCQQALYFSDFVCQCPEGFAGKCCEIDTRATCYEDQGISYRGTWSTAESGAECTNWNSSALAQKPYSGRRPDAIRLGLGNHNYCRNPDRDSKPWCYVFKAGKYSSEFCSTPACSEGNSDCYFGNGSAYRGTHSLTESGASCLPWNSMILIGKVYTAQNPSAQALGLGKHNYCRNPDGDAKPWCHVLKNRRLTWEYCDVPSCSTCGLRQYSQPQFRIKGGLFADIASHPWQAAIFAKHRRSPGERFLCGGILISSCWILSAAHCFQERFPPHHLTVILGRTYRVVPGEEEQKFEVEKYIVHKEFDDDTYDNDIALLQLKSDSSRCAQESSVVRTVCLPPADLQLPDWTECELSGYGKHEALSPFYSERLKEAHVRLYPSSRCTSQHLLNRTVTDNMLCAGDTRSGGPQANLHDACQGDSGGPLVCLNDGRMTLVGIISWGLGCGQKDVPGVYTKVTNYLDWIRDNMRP

NCCCCCC(=O)O [ε-aminocaproic acid, reference compound]
effect on tPA binding to amyloid fibrils (tPA [1]): capable of competing out amyloid binding | effect on tPA binding to amyloid fibrils (tPA [1]; listed as ε-amino caproic acid): partially blocked

Corticotropin Releasing Factor: control peptide, 41 amino acids
fibril formation [2]: did not form fibrils

DAEFQHDSGYEVHHQKLVFFAEDVGSNK [R5Q]
t-PA binding relative to wt β1-28 and fibrin controls (tPA [1]): reduced

DAEFRHDSGYEVHHQKLVFFAEDVGSNQ [K28Q]
t-PA binding relative to wt β1-28 and fibrin controls (tPA [1]): reduced | stimulation of t-PA-mediated plasminogen activation [3]: profoundly decreased levels of stimulation

DAEFRHDSGYEVHHQKLVFFAEQVGSNK [D23Q]
t-PA binding relative to wt β1-28 and fibrin controls (tPA [1]): reduced

DAEFRHDSGYEVHHQQLVFFAEDVGSNK [K16Q]
stimulation of t-PA-mediated plasminogen activation [3]: enhanced stimulation

Fibrinogen
Km (tPA [4]; Km of t-PA for plasminogen with the stimulator present): 3.3 µM | kcat (tPA [4]; kcat of t-PA with the stimulator present): 0.051 s⁻¹

Growth Hormone Releasing Factor: control peptide, 29 amino acids
fibril formation [2]: did not form fibrils

β 1-40 Amyloid Fibrils: synthetic β1-40 amyloid peptide (Bachem Bioscience), aggregated to fibrils
Kd of t-PA binding to fibrils (tPA [1]; 125I-YPACK-modified t-PA): sub-nanomolar range | % tPA Bound (tPA [1]; about 0.5 nM labeled tPA, 0.1 mg/ml fibrils or fibrin, 1 hour): 62% | tPA binding to amyloid fibrils (qualitative) (tPA [1]; radiolabeled tPA, tPA:fibrin binding as control): binds
